The results in this text go back to patent US6340743.

This assay deals with Rabbit polymeric immunoglobulin receptor (pIgR), intact, expressed in transfected MDCK cells (pWe) (rabbit) (UniProt P01832). The assay is described as follows: cell-based or functional assay.
Chain of UniProt P01832 (P01832 19-773): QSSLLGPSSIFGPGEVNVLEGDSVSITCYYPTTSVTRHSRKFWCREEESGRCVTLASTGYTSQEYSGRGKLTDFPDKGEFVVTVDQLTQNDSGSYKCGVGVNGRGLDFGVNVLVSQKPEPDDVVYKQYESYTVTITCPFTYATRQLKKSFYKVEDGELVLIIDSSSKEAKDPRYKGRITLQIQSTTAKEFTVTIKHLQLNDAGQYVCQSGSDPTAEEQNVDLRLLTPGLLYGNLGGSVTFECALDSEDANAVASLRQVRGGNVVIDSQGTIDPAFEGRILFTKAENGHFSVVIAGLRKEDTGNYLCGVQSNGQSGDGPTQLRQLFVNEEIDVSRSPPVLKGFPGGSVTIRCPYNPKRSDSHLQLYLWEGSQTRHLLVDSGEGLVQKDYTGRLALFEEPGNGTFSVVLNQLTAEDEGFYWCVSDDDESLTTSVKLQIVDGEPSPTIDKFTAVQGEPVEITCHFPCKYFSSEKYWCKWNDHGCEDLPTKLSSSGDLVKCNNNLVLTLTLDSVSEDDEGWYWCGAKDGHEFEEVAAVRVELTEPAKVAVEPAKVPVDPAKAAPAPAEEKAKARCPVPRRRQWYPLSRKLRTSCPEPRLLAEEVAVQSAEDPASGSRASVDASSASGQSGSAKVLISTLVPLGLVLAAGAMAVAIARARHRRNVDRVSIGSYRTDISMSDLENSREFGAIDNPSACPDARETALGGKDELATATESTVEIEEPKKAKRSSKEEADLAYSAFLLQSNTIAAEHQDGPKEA

Radio-iodinated IgA (antibody) had a percent of ligand transcytosed from the apical to the basolateral surface of 5 to 6%.
